Measurements: publication PMC6211522
pKd: −log10 of the molar value.

How the values were obtained:
[1] = biological target: MHV-68 viral PARP-1-interacting protein (vPIP; ORF49), purified recombinant (murine gammaherpesvirus 68 (MHV-68)); experiment: SEC-MALS; 50 mM HEPES pH 7.5, 100 mM NaCl; WTC-050S5 column, DAWN HELEOS II and Optilab T-rEX detectors
[2] = biological target: His-tagged mouse PARP-1 protein (Sino Biological) (mouse) (UniProt P11103); experiment: SPR; […], CM5 chip; […], HBS-EP (10 mM HEPES pH 7.4, 150 mM NaCl, 3 mM EDTA, 0.005% P20); 1:1 binding model
UniProt P11103, sequence (P11103 whole entry): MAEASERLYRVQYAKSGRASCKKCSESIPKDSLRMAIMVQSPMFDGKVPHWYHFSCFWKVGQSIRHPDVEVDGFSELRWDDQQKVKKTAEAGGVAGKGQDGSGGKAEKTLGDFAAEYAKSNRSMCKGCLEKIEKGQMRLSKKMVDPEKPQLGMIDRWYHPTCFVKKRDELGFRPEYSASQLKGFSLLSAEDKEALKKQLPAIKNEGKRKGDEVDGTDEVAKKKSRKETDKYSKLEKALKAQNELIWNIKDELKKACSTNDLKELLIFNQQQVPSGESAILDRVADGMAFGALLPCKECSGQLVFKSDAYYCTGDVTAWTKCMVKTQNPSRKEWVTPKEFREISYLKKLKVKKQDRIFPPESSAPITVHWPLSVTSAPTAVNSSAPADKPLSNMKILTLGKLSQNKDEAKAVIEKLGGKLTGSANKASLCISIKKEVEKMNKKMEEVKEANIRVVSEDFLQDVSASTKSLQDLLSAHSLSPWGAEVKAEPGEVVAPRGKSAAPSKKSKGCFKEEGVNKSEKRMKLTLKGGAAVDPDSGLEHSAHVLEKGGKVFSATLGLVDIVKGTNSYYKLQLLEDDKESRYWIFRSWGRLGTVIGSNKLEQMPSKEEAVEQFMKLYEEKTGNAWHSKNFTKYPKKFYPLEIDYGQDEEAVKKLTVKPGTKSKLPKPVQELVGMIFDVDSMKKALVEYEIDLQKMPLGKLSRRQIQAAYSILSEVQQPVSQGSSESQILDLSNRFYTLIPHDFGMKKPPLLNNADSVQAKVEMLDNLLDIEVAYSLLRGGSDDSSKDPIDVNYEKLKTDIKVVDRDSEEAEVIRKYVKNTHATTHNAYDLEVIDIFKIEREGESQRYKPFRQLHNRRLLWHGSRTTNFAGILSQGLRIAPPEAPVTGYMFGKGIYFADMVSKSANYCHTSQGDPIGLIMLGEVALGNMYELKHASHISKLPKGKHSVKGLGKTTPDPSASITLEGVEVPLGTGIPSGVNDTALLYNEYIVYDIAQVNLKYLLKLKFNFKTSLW

[3] = biological target: FLAG-tagged PARP-1 in HEK293T cells (UniProt P09874); experiment: co-IP (anti-FLAG) and Western blotting, band intensity by ImageJ; details: 48 h post-transfection, parent: 1.0
UniProt P09874, sequence (P09874 whole entry): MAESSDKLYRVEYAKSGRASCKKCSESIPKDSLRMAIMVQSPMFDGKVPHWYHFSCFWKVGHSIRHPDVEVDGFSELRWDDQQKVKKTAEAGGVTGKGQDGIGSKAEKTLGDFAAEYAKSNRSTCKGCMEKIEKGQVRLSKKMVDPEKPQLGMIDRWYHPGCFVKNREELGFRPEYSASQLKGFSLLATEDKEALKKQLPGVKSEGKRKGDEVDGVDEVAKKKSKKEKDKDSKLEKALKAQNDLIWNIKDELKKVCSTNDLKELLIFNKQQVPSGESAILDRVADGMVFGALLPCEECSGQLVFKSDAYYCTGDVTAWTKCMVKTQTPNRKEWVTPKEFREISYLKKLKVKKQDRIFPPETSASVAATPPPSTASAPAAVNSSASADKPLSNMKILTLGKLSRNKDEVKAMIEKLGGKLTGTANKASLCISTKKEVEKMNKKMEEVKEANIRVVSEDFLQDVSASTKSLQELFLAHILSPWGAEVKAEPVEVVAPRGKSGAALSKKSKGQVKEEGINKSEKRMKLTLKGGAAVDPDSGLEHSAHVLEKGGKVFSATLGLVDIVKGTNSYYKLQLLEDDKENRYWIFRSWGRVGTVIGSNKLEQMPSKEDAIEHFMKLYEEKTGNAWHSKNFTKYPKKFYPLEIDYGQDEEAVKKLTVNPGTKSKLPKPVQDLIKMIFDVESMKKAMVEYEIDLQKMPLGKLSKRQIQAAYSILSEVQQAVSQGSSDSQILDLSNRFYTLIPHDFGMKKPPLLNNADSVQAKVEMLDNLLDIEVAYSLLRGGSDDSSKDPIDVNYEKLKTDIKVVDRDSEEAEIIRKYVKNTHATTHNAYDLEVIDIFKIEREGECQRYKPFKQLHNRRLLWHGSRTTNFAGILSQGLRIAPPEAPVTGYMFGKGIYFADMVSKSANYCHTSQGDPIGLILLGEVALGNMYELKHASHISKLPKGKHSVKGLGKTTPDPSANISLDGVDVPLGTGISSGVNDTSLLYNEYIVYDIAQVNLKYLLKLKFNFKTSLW

**Q.** For “MHV-68 viral PARP-1-interacting protein (vPIP; ORF49), purified recombinant (natural protein)”, which stoichiometry N [1] is on record?
**A.** 2

**Q.** And the pKd [2]?
**A.** 6.03

**Q.** With “MYC-tagged vPIP wild type in HEK293T cells F5A; S12A; T16A” as the substance, how does the ratio to parent [3] read?
**A.** 0.5

**Q.** Which ratio to parent [3] does the source give for “MYC-tagged vPIP wild type in HEK293T cells F5A; S12A; T16A; H47A; D50A” here?
**A.** 0.3

**Q.** “MYC-tagged vPIP wild type in HEK293T cells H47A; D50A” was tested. Which ratio to parent [3] did it give?
**A.** 1.4

**Q.** How did the pKd [2] turn out when “ORF49_(KSHV), purified recombinant (natural protein)” was run?
**A.** 6.39
